# Results from patent US20030166037.
# T1: FasL1 FRET peptide (Aedans)EKELAELRESTS(Dabcyl)K-amide
# T1 sequence: KELAELRESTS
# T2: FasL1 FRET peptide (Aedans)…(Dabcyl)K-amide
# T2 chain: KELAELRESTS
# T3: Peptide D7 (Aedans)ERNITEGEARGSVIL(Dabcyl)K-amide (not fully specified)
# T3 chain: ERNITEGEARGSVIL
# T4: 29CD23 FRET peptide (Aedans)…(Dabcyl)K-amide
# T4 chain: ADLSSFKSQEL
# B1: truncated recombinant human Aggrecanase-2 (pro- and protease domains with C-terminal FLAG epitope) (protein)
# chain: SISRARQVELLLVADASMARLYGRGLQHYLLTLASIANRLYSHASIENHIRLAVVKVVVLGDKDKSLEVSKNAATTLKNFCKWQHQHNQLGDDHEEHYDAAILFTREDLCGHHSCDTLGMADVGTICSPERSCAVIEDDGLHAAFTVAHEIGHLLGLSHDDSKFCEETFGSTEDKRLMSSILTSIDASKPWSKCTSATITEFLDDGHGNCLLDLPRKQILGGDYKDDDDKG
# B2: truncated recombinant human Aggrecanase-1 (pro- and protease domains with C-terminal FLAG epitope) (protein)
# chain: FASLSRFVETLVVADDKMAAFHGAGLKRYLLTVMAAAAKAFKHPSIRNPVSLVVTRLVILGSGEEGPQVGPSAAQTLRSFCAWQRGLNTPEDSDPDHFDTAILFTRQDLCGVSTCDTLGMADVGTVCDPARSCAIVEDDGLQSAFTAAHELGHVFNMLHDNSKPCISLNGPLSTSRHVMAPVMAHVDPEEPWSPCSARFITDFLDNGYGHCLLDKPEAPLHLPVTGDYKDDDDKG
# Experiments:
# [1] = test system: T1, FasL1 FRET peptide (Aedans)EKELAELRESTS(Dabcyl)K-amide
# [2] = biological target: T2, FasL1 FRET peptide …
# [3] = biological target: T3, Peptide D7 …
# [4] = biological target: T4, 29CD23 FRET peptide …
# [5] = biological target: T2, FasL1 FRET peptide …; test: FRET peptide cleavage kinetics, non-linear fit of rate against substrate concentration (the filing calls it analysis of affinities)
# [6] = biological target: T4, 29CD23 FRET peptide …; test: as above
Molecule,FRET peptide cleavage in similar screening assays [1],Relative proteolytic Activity [2],FRET peptide cleavage activity [3],also measured
"MMP7 (Chemicon, Cat. #CC1059)",shown in similar screening assays to be a suitable substrate for the metalloproteases MMP7 and MMP 13,,,
"MMP 13 (Chemicon, Cat. #CC068)",shown in similar screening assays to be a suitable substrate for the metalloproteases MMP7 and MMP 13,,,
B1,,*****,Neither Aggrecanase-1 nor Aggrecanase-2 showed any activity on this peptide,Vm [2]: 2.8 rfu/min; Relative proteolytic Activity [4]: *****; Vm [4]: 0.6 rfu/min; Km [5]: 80 µM; Km [6]: 40 µM
B2,,*,Neither Aggrecanase-1 nor Aggrecanase-2 showed any activity on this peptide,
